Entries after “also recorded” stand apart in the source; their conditions may differ.
Legend:
MOR [1] = target: T1, MOR (Mus musculus, UniProt P42866); experiment: Agonist-induced downregulation of MOR, radioligand binding; format: cell-based; conditions: 10 μM, 3 hours
From the text: (§1) Agonist-induced downregulation can be determined by any of a variety of methods, including those described herein. For example, cell surface receptors can be measured and/or receptor proteolysis or localization in lysozomes can be determined. Alternatively, receptor downregulation can be determined indirectly by measuring desensitization of receptors after activation with an agonist. Desensitization can be determined, for example, by measuring a biological effect that is mediated by the receptor. (See FIG. 1 for examples of each of these methods.) Generally, it will be most convenient to measure cell surface receptors using a radio- or immunoassay. An exemplary radioligand binding assay useful for determining agonist-induced downregulation is described in Example 1. (See FIG. 1A and Reference 16.) Briefly, cells expressing the cell surface receptor of interest are incubated with a suitable agonist under conditions designed to provide a saturating concentration of agonist over the incubation period. After agonist treatment, the cells are recovered and assayed for radioligand binding. […]
(§2) (See 18 and 45 for the DOR and MOR expression constructs, respectively.) Cells were then chilled on ice, washed extensively and total opioid radioligand binding sites were determined for each cell line (16). […]

D MOR [2] = experiment: Agonist-induced downregulation of D MOR, radioligand binding; format: cell-based; conditions: 10 μM, 3 hours
From the text: as §1, §2

MOR [3] = target: T1, MOR; experiment: Membrane adenylyl cyclase assay, MOR cells; format: cell-based
Protocol: (§3) 21. Membrane adenylyl cyclase assays were performed as previously described (9).

MOR [4] = target: T1, MOR; experiment: Colocalization of MOR with LAMP1 and LAMP2; format: cell-based; conditions: 5 μM, 90 min
D MOR [5] = experiment: Membrane adenylyl cyclase assay, D MOR cells; format: cell-based
Protocol: as §3

[6] = target: epitope (FLAG)-tagged delta opioid receptor (DOR-1), full length, stably expressed in HEK293 cells (UniProt P32300); experiment: co-immunoprecipitation: receptor immunoprecipitated, blotted for GASP1
[7] = target: epidermal growth factor (EGF) receptor (Homo sapiens, UniProt P00533); experiment: EGFR assay, ligand-induced downregulation of EGF receptor; format: cell-based; conditions: EGF 30 minutes or 3 hours
Protocol: 32. EGFR assay: Cells expressing only endogenous GASP1 and cells overexpressing GFP-cGASP1 (>40×) were grown to 80% confluency and treated with 5 μM EGF in DMEM for the indicated times or left untreated. Cells were washed with PBS, EGF receptor was immunoprecipitated with Rabbit anti EGFR-affinity resin (Santa Cruz Biotechnology), separated by SDS page and immunoblotted with goat anti-EGFR antibodies (Santa Cruz Biotechnology), followed by HRP-conjugated anti-goat secondary (Jackson Immunoresearch) and development with ECL reagents (Amersham).

[8] = target: T2, endogenous GASP1 binding to DOR (Mus musculus, UniProt P32300); experiment: Competition with endogenous GASP1 for DOR binding in cells (co-immunoprecipitation); format: cell-based; conditions: overexpressed approximately 40 fold over endogenous GASP1
T2 construct: co-immunoprecipitated specifically with full length DOR but not with MOR expressed at similar levels; expressed in transfected cells; host or cells: HEK293 stably expressing DOR (GASP1 endogenous)
Protocol: 30. Assay for coimmunoprecipitation of cGASP1 with opioid receptors: Cells were grown to confluency, washed 2 times with PBS and lysed in 0.1% Triton X-100, 150 mM NaCl, 25 mM KCl, 10 mM Tris-HCl pH 7.4 containing 1 μM leupeptin, 1 μM pepstatin A, 1 μM aprotinin, 2.5 μM Pefabloc SC, and cell debris was removed by centrifugation at 10,000×g for 10 minutes at 4° C. An aliquot of lysate was removed for GASP1 control blot. Lysate was incubated with M2 affinity resin (Sigma) overnight. Pellets were extensively washed and incubated with PNGase (NEB) for 2 hours at 37° C. to degycosylate receptor protein. Samples were eluted in SDS sample buffer. For co-immunoprecipitation with endogenous GASP1, one fourth of eluate was separated by SDS-PAGE on a 12% gel (receptor blot), three quarters on a 7% gel (GASP1 blot). For co-immunoprecipitation with cGASP1 eluate was run on a 12% gel that was later cut and blotted separately for cGASP1 and receptor. Proteins were transferred to nitrocellulose. GASP1 blots were incubated for 2 hours with rabbit anti-GASP1 (1:4000). cGASP1 blots were incubated with rabbit anti-GFP antibodies for 2 hours (1:200) (Clonetech). Both were followed by 1 hour with horseradish peroxidase (HRP)-conjugated anti-rabbit antibody (NEB) (1:3000), and visualized with ECL plus (Amersham). […]

B2AR-Ala [9] = target: T3, B2AR-Ala (Homo sapiens, UniProt P07550); experiment: Co-immunoprecipitation with B2AR-Ala; format: binding; conditions: cells stably expressing B2AR-Ala and GFP-cGASP1
T3 construct: expressed in transfected cells
From the text: The ability of GASP1 to bind to the B2AR tail in vitro was initially surprising, since the B2AR recycles efficiently after agonist-induced endocytosis and is relatively resistant to proteolysis in HEK293 cells (35). It has been shown previously that efficient recycling of the B2AR in these cells requires the actin cytoskeleton and a distinct set of protein interactions with the distal tip of the cytoplasmic tail (7). Adding a single alanine residue to the carboxyl terminus of the B2AR specifically disrupts this “recycling protein” interaction, creating a mutant B2AR (B2AR-Ala) that is sorted to lysosomes after agonist-induced endocytosis (7) (and see this study FIG. 5C) much like DOR (FIG. 1B). […] Consistent with this, GFP-cGASP1 co-immunoprecipited with B2AR-Ala (FIG. 5B) (30). Furthermore, overexpression of GFP-cGASP1 inhibited degradation of internalized B2AR-Ala (FIG. 5C), providing evidence for a functional role of the GASP1 protein interaction in lysosomal sorting of a non-opioid GPCR.
30. Assay for coimmunoprecipitation of cGASP1 with opioid receptors: Cells were grown to confluency, washed 2 times with PBS and lysed in 0.1% Triton X-100, 150 mM NaCl, 25 mM KCl, 10 mM Tris-HCl pH 7.4 containing 1 μM leupeptin, 1 μM pepstatin A, 1 μM aprotinin, 2.5 μM Pefabloc SC, and cell debris was removed by centrifugation at 10,000×g for 10 minutes at 4° C. […]

DOR [10] = target: T4, DOR (Mus musculus, UniProt P32300); experiment: Biotin protection-degradation assay, endocytosed DOR; format: cell-based; conditions: cells overexpressing cGASP1 vs DOR alone, agonist 3 hours
T4 construct: co-immunoprecipitated specifically with full length DOR but not with MOR expressed at similar levels; expressed in transfected cells
Protocol: (§4) 17. Biotin protection-degradation assay for proteolysis of surface-biotinylated receptors following endocytosis: Cells were grown to 80% confluency washed 2 times with cold phosphate buffered saline (PBS) then incubated in 3 μg/ml cleavable biotin (Pierce) in PBS at 4° C. for 30 minutes with gentle agitation. Cells were washed 2 times with Tris buffered saline and placed back into medium for treatment. Cells labeled “100% biotinylated” were left on ice in PBS. Cells labeled “100% stripped” were also left on ice in PBS then stripped as described below. Cells were treated with 5 μM agonist for 30 minutes or 3 hours, washed 2 times with cold PBS and the remaining cell surface biotinylated receptors were stripped in 50 mM glutathione, 0.3 M NaCl, 75 mM NaOH, 1% fetal bovine serum at 4° C. for 30 minutes. Glutathione was quenched with a 20 minute wash of PBS with 50 mM iodoacetamide, 1% bovine serum albumin. Cells were extracted in 0.1% Triton X-100, 150 mM NaCl, 25 mM KCl, 10 mM Tris-HCl pH 7.4 containing 1 μM leupeptin, 1 μM pepstatin A, 1 μM aprotinin, 2.5 μM Pefabloc SC, and cell debris was removed by centrifugation at 10,000×g for 10 minutes at 4° C. Receptors were immunoprecipitated using M2 antibody (Sigma), rabbit anti mouse linker (Jackson Immunoresearch) and protein A sepharose (Pharmacia) overnight. […]

DOR [11] = target: T4, DOR; experiment: Agonist-induced downregulation of DOR, radioligand binding; format: cell-based; conditions: 5 μM DADLE 3 hours
B2AR-Ala [12] = target: T3, B2AR-Ala; experiment: Biotin protection-degradation assay, endocytosed B2AR-Ala; format: cell-based; conditions: cells overexpressing cGASP1 vs B2AR-Ala alone, isoproterenol
Protocol: as §4

cytoplasmic tail of DOR = target: T5, cytoplasmic tail of DOR (Mus musculus, UniProt P32300); experiment: GST affinity chromatography, binding to DOR cytoplasmic tail; conditions: in vitro
T5 construct: GST; made in house
T5 sequence (P32300 312-371): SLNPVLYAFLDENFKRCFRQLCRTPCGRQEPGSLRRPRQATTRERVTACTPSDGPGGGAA
Protocol: Sequence homology to a non-mammalian protein was observed between the carboxyl-terminal regions of GASP1 and Vac8p, a yeast protein involved in late endocytic trafficking (26).
24. Affinity chromatography was carried out as previously described (25).

[13] = agonist 3 hours, washout, 10 μM naloxone 30 minutes

Molecule: CC(C)C[C@@H](NC(=O)[C@H](Cc1ccccc1)NC(=O)CNC(=O)[C@@H](C)NC(=O)[C@@H](N)Cc1ccc(O)cc1)C(=O)O [DADLE, Tyr-D-Ala-Gly-Phe-D-Leu]
- agonist-induced downregulation of MOR (total opioid radioligand binding sites) (MOR [1]): not substantially downregulated
- agonist-induced downregulation of D MOR (total opioid radioligand binding sites) (D MOR [2]): significant downregulation

Molecule: C[C@@H](NC(=O)[C@@H](N)Cc1ccc(O)cc1)C(=O)NCC(=O)N(C)[C@@H](Cc1ccccc1)C(=O)NCCO [DAMGO]
- desensitization of MOR (MOR [3]; 5 μM, 10 minute exposure): Rapid desensitization
- resensitization of MOR (MOR [3]; [13]): recovered their ability to mediate agonist-dependent inhibition of adenylyl cyclase
- colocalization of MOR with LAMP after agonist (MOR [4]): not colocalized with LAMP
- desensitization of D MOR (D MOR [5]; 5 μM, 10 minute exposure): Rapid desensitization
- resensitization of D MOR (D MOR [5]; [13]): neither DOR nor D MOR resensitized significantly

Molecule: endogenous GASP1 of HEK293 cells
- percent of endogenous GASP1 immunoprecipitated with DOR [6]: < 1%
- percent of total endogenous GASP1 coimmunoprecipitated with DOR [6]: < 1%

B1: GFP-cGASP1: GFP-tagged version of cGASP1 stably overexpressed in HEK293 cells (protein)
chain: SETEEETIFGSWFWDGKEVSEEAGPCCVSKPEDDEEMIVESWFWSRDKAIKETGTVATCESKPENEEGAIVGSWFEAEDEVDNRTDNGSNCGSRTLADEDEAIVGSWFWAGDEAHFESNPSPVFRAICRSTCSVEQEPDPSRRPQSWEEVTVQFKPGPWGRVGFPSISPFRFPKEAASLFCEMFGGKPRNMVLSPEGEDQESLLQPDQPSPEFPFQYDPSYRSVQEIREHLRAKESTEPESSSCNCIQCELKIGSEEFEELLLLMEKIRDPFIHEISKIAMGMRSASQFTRDFIRDSGVVSLIETLLNYPSSRVRTSFLENMIRMAPPYPNLNIIQTYICKVCEETLAYSVDSPEQLSGIRMIRHLTTTTDYHTLVANYMSGFLSLLATGNAKTRFHVLKMLLNLSENLFMTKELLSAEAVSEFIGLFNREETNDNIQIVLAIFENIGNNIKKETVFSDDDFNIEPLISAFHKVEKFAKELQGKTDNQNDPEGDQEN
modifications: left off: large carriers; small tags and cut ends
notes: GFP-tagged version of cGASP1 stably overexpressed in HEK293 cells
- effect on downregulation of the EGF receptor [7]: unaffected
- competition with endogenous GASP1 for binding to DOR in vivo [8]: substantially reduced the amount of endogenous GASP1 recovered in DOR immunoprecipitates; also recorded: competes with endogenous GASP1 for binding to DOR in vivo
- binding to B2AR-Ala in vivo (co-immunoprecipitation) (B2AR-Ala [9]): binds in vivo
- stability of endocytosed DOR (post-endocytic proteolysis) (DOR [10]): significantly more stable

B2: cGASP1: carboxyl-terminal fragment of the GASP1 protein, corresponding to the C-terminal 497 residues of GASP1 (protein)
chain: SETEEETIFGSWFWDGKEVSEEAGPCCVSKPEDDEEMIVESWFWSRDKAIKETGTVATCESKPENEEGAIVGSWFEAEDEVDNRTDNGSNCGSRTLADEDEAIVGSWFWAGDEAHFESNPSPVFRAICRSTCSVEQEPDPSRRPQSWEEVTVQFKPGPWGRVGFPSISPFRFPKEAASLFCEMFGGKPRNMVLSPEGEDQESLLQPDQPSPEFPFQYDPSYRSVQEIREHLRAKESTEPESSSCNCIQCELKIGSEEFEELLLLMEKIRDPFIHEISKIAMGMRSASQFTRDFIRDSGVVSLIETLLNYPSSRVRTSFLENMIRMAPPYPNLNIIQTYICKVCEETLAYSVDSPEQLSGIRMIRHLTTTTDYHTLVANYMSGFLSLLATGNAKTRFHVLKMLLNLSENLFMTKELLSAEAVSEFIGLFNREETNDNIQIVLAIFENIGNNIKKETVFSDDDFNIEPLISAFHKVEKFAKELQGKTDNQNDPEGDQEN
- effect on agonist-induced downregulation of DOR (DOR [11]; cGASP1 overexpressed 30 fold over endogenous GASP1): less significantly
- effect on agonist-induced downregulation of DOR (DOR [11]; cGASP1 overexpressed 40-fold over endogenous GASP1): significantly inhibited
- stability of endocytosed B2AR-Ala (post-endocytic proteolysis) (B2AR-Ala [12]): significantly more stable
- input recovered on washed GST-DOR (cytoplasmic tail of DOR): 3-5%

Reference: US20040142862A1, “Methods and compositions for modulating agonist-induced downregulation of G protein-coupled receptors” (The Regents of the University of California, priority 2002, published 2004)
